A short description of the data set: self-splicing fitness, log relative to wild type (ln ratio); higher = more splicing; Tetrahymena group I intron in knt gene, E. coli kanamycin selection, DiMSum; sequences stand for … in CUCUCU…GGAGGGAAAAGUUAUCAGGCAUGCACCUGGUAGCUAGUCUUUAAACCAAUAGAUUGCAUCGGUUUAAAAGGCAAGACCGUCAAAUUGCGGGAAAGGGGUCAACAGCCGUUCAGUACCAAGUCUCAGGGGAAACUUUGAGAUGGCCUUGCAAAGGGUAUGGUAAUAAGCUGACGGACAUGGUCCUAACCACGCAGCCAAGUCCUAAGUCAACAGAUCUUCUGUUGAUAUGGAUGCAGUUCACAGACUAAAUGUCGGUCGGGGAAGAUGUAUUCUUCUCAUAAGAUAUAGUCGGACCUCUCCUUAAUGGGAGCUAGCGGAUGAAGUGAUGCAACACUGGAGCCGCUGGGAACUAAUUUGUAUGCGAAAGUAUAUUGAUUAGUUUUGGAGUACUCGUGGUCG
Summed up:
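A randomised library covering all eight P1ex-region intron nucleotides was built with the intron in the knt kanamycin-resistance gene on pET-22b(+) and held in E. coli BL21(DE3). Cells were grown overnight at 37°C or 30°C on LB agar, with or without 25 μg/mL kanamycin, plus 100 μg/mL carbenicillin, 50 μM IPTG and 0.2% rhamnose, and pooled colonies were amplicon-sequenced on an Illumina HiSeq 2500. DiMSum fitness is the error-weighted combination of wild-type-normalised replicate fold changes, kanamycin versus none.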

± gives the uncertainty stated by the source.

As to AGGGAGCAAUAUUACGCGUC, the “self-splicing fitness (ln)” value (30 °C) was -3.15 ± 0.29 and the “self-splicing fitness (ln)” value (37 °C) is -2.51 ± 0.37. The matching figures for AGGGAGCAAUAUUACGGCAU: -3.2 ± 0.2 and -2.46 ± 0.23. Consider AGGGAGCAAUAUUACGGCCA, for which the “self-splicing fitness (ln)” value runs as follows: (30 °C) -2.33 ± 0.33; (37 °C) -0.91 ± 0.31. The matching figures for AGGGAGCAAUAUUACGGCGA: -3.35 ± 0.4 and -2.62 ± 0.44. Consider AGGGAGCAAUAUUACGGCUC, for which the “self-splicing fitness (ln)” value (30 °C) is -2.18 ± 0.24. On to AGGGAGCAAUAUUACGGGAG, for which the “self-splicing fitness (ln)” value was -3.56 ± 0.2 (30 °C) and -2.13 ± 0.23 (37 °C).

Turning to AGGGAGCAAUAUUACGGUAU, where the note is “37 °C”, the “self-splicing fitness (ln)” value is -0.384 ± 0.39. As to AGGGAGCAAUAUUACGUAUC, the “self-splicing fitness (ln)” value (30 °C) is -2.16 ± 0.25. Take AGGGAGCAAUAUUACGUAUU: the “self-splicing fitness (ln)” value reads like this: (30 °C) -2.96 ± 0.18; (37 °C) -2.15 ± 0.21.

With AGGGAGCAAUAUUACGUCUC, the “self-splicing fitness (ln)” value (30 °C) is -1.79 ± 0.32 and the “self-splicing fitness (ln)” value (37 °C) was -2.54 ± 0.48. The matching figures for AGGGAGCAAUAUUACGUUCA: -1.31 ± 0.18 and -1.49 ± 0.19. The matching figures for AGGGAGCAAUAUUACGUUUU: -2.81 ± 0.21 and -2.22 ± 0.27.

For the sequence AGGUAGCAAUAUUACGAAAA, the “self-splicing fitness (ln)” value was -2.61 ± 0.031 (30 °C) and -2.01 ± 0.041 (37 °C). The matching figures for AGGUAGCAAUAUUACGAAAU: -2.048 ± 0.018 and -1.19 ± 0.035. On to AGGUAGCAAUAUUACGAACU, for which the “self-splicing fitness (ln)” value is 0.0152 ± 0.016 (30 °C) and 0.016 ± 0.034 (37 °C). The matching figures for AGGUAGCAAUAUUACGAAGC: -3.821 ± 0.036 and -2.3 ± 0.042. The matching figures for AGGUAGCAAUAUUACGAAUG: -3.277 ± 0.026 and -1.83 ± 0.037. The matching figures for AGGUAGCAAUAUUACGAGAC: -3.88 ± 0.039 and -2.69 ± 0.044.

As to AGGUAGCAAUAUUACGAUAA, the “self-splicing fitness (ln)” value runs as follows: (30 °C) -1.65 ± 0.018; (37 °C) -0.626 ± 0.035. For AGGUAGCAAUAUUACGCAAU, the “self-splicing fitness (ln)” value runs as follows: (30 °C) -1.959 ± 0.017; (37 °C) -1.03 ± 0.034. The matching figures for AGGUAGCAAUAUUACGCAGU: -2.979 ± 0.021 and -1.68 ± 0.035.

On to AGGUAGCAAUAUUACGCCAC, for which the “self-splicing fitness (ln)” value runs as follows: (30 °C) -3.97 ± 0.058; (37 °C) -2.98 ± 0.069. The matching figures for AGGUAGCAAUAUUACGCCCU: -3.56 ± 0.048 and -2.45 ± 0.058. Take AGGUAGCAAUAUUACGCGGA: the “self-splicing fitness (ln)” value (30 °C) is -2.062 ± 0.019 and the “self-splicing fitness (ln)” value (37 °C) is -1.09 ± 0.033. The matching figures for AGGUAGCAAUAUUACGCUGA: -2.032 ± 0.019 and -1.14 ± 0.034. The matching figures for AGGUAGCAAUAUUACGCUGU: -3.789 ± 0.033 and -2.97 ± 0.043. Consider AGGUAGCAAUAUUACGCUUA, for which the “self-splicing fitness (ln)” value is -1.2 ± 0.017 (30 °C) and -0.467 ± 0.034 (37 °C).

For AGGUAGCAAUAUUACGGAGA, the “self-splicing fitness (ln)” value is -3.57 ± 0.037 (30 °C) and -2.82 ± 0.043 (37 °C).

In the case of AGGUAGCAAUAUUACGGAGC, the “self-splicing fitness (ln)” value reads like this: (30 °C) -4.047 ± 0.034; (37 °C) -2.5 ± 0.04. In the case of AGGUAGCAAUAUUACGGAGU, the “self-splicing fitness (ln)” value is, setting by setting: (30 °C) -3.487 ± 0.021; (37 °C) -1.72 ± 0.034. On to AGGUAGCAAUAUUACGGGAA, for which the “self-splicing fitness (ln)” value is, setting by setting: (30 °C) -2.69 ± 0.027; (37 °C) -2.11 ± 0.038. As to AGGUAGCAAUAUUACGGGUA, the “self-splicing fitness (ln)” value was -2.347 ± 0.022 (30 °C) and -1.31 ± 0.034 (37 °C).

On to AGGUAGCAAUAUUACGGUAA, for which the “self-splicing fitness (ln)” value runs as follows: (30 °C) -2.123 ± 0.021; (37 °C) -1.2 ± 0.034. For AGGUAGCAAUAUUACGGUGC, the “self-splicing fitness (ln)” value is -3.382 ± 0.029 (30 °C) and -1.98 ± 0.038 (37 °C). Consider AGGUAGCAAUAUUACGGUGG, for which the “self-splicing fitness (ln)” value runs as follows: (30 °C) -3.787 ± 0.027; (37 °C) -2.8 ± 0.04.

With AGGUAGCAAUAUUACGGUUC, the “self-splicing fitness (ln)” value by setting is: (30 °C) -2.769 ± 0.022; (37 °C) -1.51 ± 0.036.

On to AGGUAGCAAUAUUACGUCAG, for which the “self-splicing fitness (ln)” value was -2.334 ± 0.019 (30 °C) and -1.42 ± 0.035 (37 °C).

As for AGGUAGCAAUAUUACGUCCC, the “self-splicing fitness (ln)” value runs as follows: (30 °C) -1.02 ± 0.025; (37 °C) -0.535 ± 0.042. The matching figures for AGGUAGCAAUAUUACGUCCU: -3.01 ± 0.027 and -2.01 ± 0.041.

As to AGUAAGCAAUAUUACGAAUC, the “self-splicing fitness (ln)” value is, setting by setting: (30 °C) -4.12 ± 0.42; (37 °C) -2.86 ± 0.34.

Consider AGUAAGCAAUAUUACGAAUU, for which the “self-splicing fitness (ln)” value (30 °C) is -2.92 ± 0.42. On to AGUAAGCAAUAUUACGACAA, for which the “self-splicing fitness (ln)” value was -1.35 ± 0.17 (30 °C) and -0.886 ± 0.17 (37 °C). Regarding AGUAAGCAAUAUUACGAGCG, the “self-splicing fitness (ln)” value reads like this: (30 °C) -0.847 ± 0.072; (37 °C) -0.0455 ± 0.11. On to AGUAAGCAAUAUUACGAGGC, for which, where the note is “30 °C”, the “self-splicing fitness (ln)” value is -2.59 ± 0.34. Turning to AGUAAGCAAUAUUACGAGGU, the “self-splicing fitness (ln)” value (30 °C) was -2.56 ± 0.18 and the “self-splicing fitness (ln)” value (37 °C) is -2.89 ± 0.22. In the case of AGUAAGCAAUAUUACGAUAG, the “self-splicing fitness (ln)” value (30 °C) is -3.75 ± 0.33 and the “self-splicing fitness (ln)” value (37 °C) is -2.86 ± 0.31. For the sequence AGUAAGCAAUAUUACGAUGA, the “self-splicing fitness (ln)” value by setting is: (30 °C) -2.3 ± 0.16; (37 °C) -1.03 ± 0.13. The matching figures for AGUAAGCAAUAUUACGCAGA: -3.22 ± 0.36 and -2.67 ± 0.29. The matching figures for AGUAAGCAAUAUUACGCAUC: -4.12 ± 0.29 and -1.48 ± 0.27. The matching figures for AGUAAGCAAUAUUACGCCGA: -1.31 ± 0.45 and -0.709 ± 0.46. For the sequence AGUAAGCAAUAUUACGCUGG, the “self-splicing fitness (ln)” value reads like this: (30 °C) -3.89 ± 0.23; (37 °C) -2.39 ± 0.22. As for AGUAAGCAAUAUUACGCUUA, the “self-splicing fitness (ln)” value (30 °C) was -3.07 ± 0.16 and the “self-splicing fitness (ln)” value (37 °C) was -1.44 ± 0.15. Turning to AGUAAGCAAUAUUACGGAGC, the “self-splicing fitness (ln)” value (30 °C) is -2.93 ± 0.37. Consider AGUAAGCAAUAUUACGGGUA, for which the “self-splicing fitness (ln)” value is -2.7 ± 0.15 (30 °C) and -1.56 ± 0.13 (37 °C). In the case of AGUAAGCAAUAUUACGGUCG, the “self-splicing fitness (ln)” value reads like this: (30 °C) -1.95 ± 0.083; (37 °C) -0.559 ± 0.087. For AGUAAGCAAUAUUACGUACC, the “self-splicing fitness (ln)” value runs as follows: (30 °C) -0.632 ± 0.16; (37 °C) 0.366 ± 0.21.

In the case of AGUAAGCAAUAUUACGUACG, the “self-splicing fitness (ln)” value reads like this: (30 °C) -1.51 ± 0.11; (37 °C) 0.135 ± 0.14.

As to AGUAAGCAAUAUUACGUCAA, the “self-splicing fitness (ln)” value reads like this: (30 °C) -3.78 ± 0.21; (37 °C) -2 ± 0.15. The matching figures for AGUAAGCAAUAUUACGUCGU: -2.12 ± 0.13 and -0.496 ± 0.12. The matching figures for AGUAAGCAAUAUUACGUCUC: -3.31 ± 0.25 and -2.96 ± 0.47. For the sequence AGUAAGCAAUAUUACGUCUG, the “self-splicing fitness (ln)” value (30 °C) was -3.21 ± 0.17 and the “self-splicing fitness (ln)” value (37 °C) was -1.49 ± 0.12. On to AGUAAGCAAUAUUACGUGCG, for which the “self-splicing fitness (ln)” value is -1.27 ± 0.088 (30 °C) and -0.396 ± 0.097 (37 °C).

(Values after the supplement of paper PMC7877785.)
